Measurements reported in patent US20140178854A1.

Target: gp70 env protein of amphotropic MLV (4070A envelope), on purified viral particles (amphotropic murine leukemia virus (4070A envelope))
Experiment: ELISA on plate-bound MLV, dilution factor 6250, Exp074-DTV Plate 1

Sequence of gp70 env protein of amphotropic MLV (4070A envelope), on purified viral particles (amphotropic murine leukemia virus (4070A envelope)) (P21995 whole entry): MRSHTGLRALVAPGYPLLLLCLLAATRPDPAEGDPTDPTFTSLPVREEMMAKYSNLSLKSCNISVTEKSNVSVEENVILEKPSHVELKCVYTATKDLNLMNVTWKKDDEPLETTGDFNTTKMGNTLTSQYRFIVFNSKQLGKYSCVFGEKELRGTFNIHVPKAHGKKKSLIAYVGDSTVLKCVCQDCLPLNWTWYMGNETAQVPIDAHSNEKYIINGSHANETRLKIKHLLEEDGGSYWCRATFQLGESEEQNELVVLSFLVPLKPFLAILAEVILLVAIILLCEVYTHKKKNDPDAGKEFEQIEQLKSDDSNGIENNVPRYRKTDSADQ

## 83A25 monoclonal antibody (rat IgG2a, anti-gp70)
  Mean OD: 0.636 OD
